The target of experiment [1] is T1, Seprase on seprase-expressing LOX cells (human (human melanoma cell line LOX), UniProt Q12884 1-760).
T1 construct: whole, on cells
T1 sequence (looked up): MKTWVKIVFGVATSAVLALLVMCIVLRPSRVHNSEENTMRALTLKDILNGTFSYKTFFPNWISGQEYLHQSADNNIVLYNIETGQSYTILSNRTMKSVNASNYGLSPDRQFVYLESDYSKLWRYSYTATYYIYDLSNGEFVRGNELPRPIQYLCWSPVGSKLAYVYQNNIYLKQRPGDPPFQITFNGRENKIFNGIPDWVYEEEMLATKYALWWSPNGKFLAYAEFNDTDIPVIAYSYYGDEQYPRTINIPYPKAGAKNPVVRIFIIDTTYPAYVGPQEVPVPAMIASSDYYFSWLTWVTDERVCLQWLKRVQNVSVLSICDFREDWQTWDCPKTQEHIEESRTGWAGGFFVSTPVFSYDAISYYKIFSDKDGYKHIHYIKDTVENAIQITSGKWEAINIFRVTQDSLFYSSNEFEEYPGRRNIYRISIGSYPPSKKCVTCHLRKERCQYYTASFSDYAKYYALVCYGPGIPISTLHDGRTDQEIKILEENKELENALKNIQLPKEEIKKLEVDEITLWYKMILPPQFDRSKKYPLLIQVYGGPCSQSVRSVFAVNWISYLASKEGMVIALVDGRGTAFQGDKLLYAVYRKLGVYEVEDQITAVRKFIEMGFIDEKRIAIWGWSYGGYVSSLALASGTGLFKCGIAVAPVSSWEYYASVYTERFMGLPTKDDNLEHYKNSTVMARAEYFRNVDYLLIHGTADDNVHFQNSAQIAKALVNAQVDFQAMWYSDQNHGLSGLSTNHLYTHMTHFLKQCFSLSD
Briefly: ELISA and immunofluorescence on LOX cells. For orientation: ELISA stands for enzyme-linked immunosorbent assay.

The target of experiment [2] is T2, Native seprase isolated from LOX cells (human (isolated from the human melanoma …, UniProt Q12884 1-760)).
T2 construct: Native enzyme purified from LOX cells; used as bait for phage panning and in the prolyl dipeptidase and gelatinase assays; also called purified seprase; seprase/FAP
T2 sequence (looked up): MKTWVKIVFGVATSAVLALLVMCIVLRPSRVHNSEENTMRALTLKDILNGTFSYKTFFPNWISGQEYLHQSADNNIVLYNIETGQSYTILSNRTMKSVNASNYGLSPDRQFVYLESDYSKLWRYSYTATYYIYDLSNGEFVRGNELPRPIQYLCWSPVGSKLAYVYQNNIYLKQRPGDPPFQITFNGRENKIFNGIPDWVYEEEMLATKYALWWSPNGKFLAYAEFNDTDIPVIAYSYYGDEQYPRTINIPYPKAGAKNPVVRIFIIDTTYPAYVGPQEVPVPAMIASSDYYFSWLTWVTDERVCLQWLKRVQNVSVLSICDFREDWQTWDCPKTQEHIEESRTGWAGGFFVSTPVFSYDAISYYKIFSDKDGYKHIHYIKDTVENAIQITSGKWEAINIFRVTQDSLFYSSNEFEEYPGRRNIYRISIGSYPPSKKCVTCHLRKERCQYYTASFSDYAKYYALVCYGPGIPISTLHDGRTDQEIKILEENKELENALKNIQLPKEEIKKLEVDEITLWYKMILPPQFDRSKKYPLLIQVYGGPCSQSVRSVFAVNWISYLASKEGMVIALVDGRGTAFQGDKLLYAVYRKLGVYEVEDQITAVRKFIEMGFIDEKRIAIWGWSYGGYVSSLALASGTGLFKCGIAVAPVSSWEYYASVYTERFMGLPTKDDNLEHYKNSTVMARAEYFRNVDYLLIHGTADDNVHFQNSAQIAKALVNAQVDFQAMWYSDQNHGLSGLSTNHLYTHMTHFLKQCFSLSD
Briefly: enzyme inhibition kinetics, prolyl dipeptidase activity of seprase with Gly-Pro-pNA, time progress curves (FIG. 1D).

Another experiment concerns the target DPP4. Briefly: enzyme inhibition kinetics, prolyl peptidase activity of DPP4 with Gly-Pro-pNA, time progress curves (FIG. 1E).
Experiment [3] has as its target T1, Seprase on seprase-expressing LOX cells. Briefly: cell-based or functional assay.
Experiment [4] concerns the target T2, Native seprase isolated from LOX cells. Briefly: cell-based or functional assay.
The target is the same in experiment [5]. Briefly: inhibition kinetic analysis; reference is DPP4.
In experiment [6] the target is T1, Seprase on seprase-expressing LOX cells. Briefly: ELISA and immunofluorescence on seprase-expressing LOX cells.
The target of experiment [7] is T2, Native seprase isolated from LOX cells. Briefly: phage display panning and phage ELISA on seprase-coated wells (positive clone: OD405 experiment/OD405 control >3.0); peptide displayed on phage.

Where no end group is shown, it is not given here.

These results are taken from patent US20060172938A1 (RESEARCH FOUNDATION OF STATE UNIVERSITY OF NEW YORK, published 2006).

DPP4, sequence (P27487 whole entry): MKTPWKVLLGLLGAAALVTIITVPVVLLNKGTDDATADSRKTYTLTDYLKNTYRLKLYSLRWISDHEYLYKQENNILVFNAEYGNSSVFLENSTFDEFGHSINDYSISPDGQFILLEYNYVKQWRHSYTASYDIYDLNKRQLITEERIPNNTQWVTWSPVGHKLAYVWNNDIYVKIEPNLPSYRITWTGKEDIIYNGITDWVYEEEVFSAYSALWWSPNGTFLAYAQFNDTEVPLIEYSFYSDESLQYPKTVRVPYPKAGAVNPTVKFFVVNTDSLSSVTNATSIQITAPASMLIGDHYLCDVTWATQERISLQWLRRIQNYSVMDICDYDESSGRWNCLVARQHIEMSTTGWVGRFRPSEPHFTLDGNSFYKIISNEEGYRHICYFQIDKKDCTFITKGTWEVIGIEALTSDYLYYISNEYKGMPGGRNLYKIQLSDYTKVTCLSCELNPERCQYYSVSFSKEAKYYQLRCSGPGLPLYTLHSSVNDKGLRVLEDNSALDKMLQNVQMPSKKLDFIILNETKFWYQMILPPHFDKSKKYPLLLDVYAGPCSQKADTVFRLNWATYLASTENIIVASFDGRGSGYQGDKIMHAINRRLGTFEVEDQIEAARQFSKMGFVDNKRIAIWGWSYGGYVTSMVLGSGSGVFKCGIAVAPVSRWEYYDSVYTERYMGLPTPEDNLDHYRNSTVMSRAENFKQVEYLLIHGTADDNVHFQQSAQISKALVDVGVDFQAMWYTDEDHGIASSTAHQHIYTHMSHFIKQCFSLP

Turning to RKISASEFDRPLR (Control) [control peptide RKISASEFDRPLR], the binding result in experiment [1] is on record as “no binding”.
The Ki is the equilibrium dissociation constant of an inhibitor or competing ligand from its target. A high value points to weaker binding. With CDMWERVSRC (also: cyclic peptide, mode of cyclisation not given here) [cyclic peptide CDMWERVSRC], the Ki came to 0.4 µM in experiment [2] and 40 µM with DPP4. Moreover, in experiment [3], the “IC50 on the overall collagen degradation by LOX cells (Bodipy FL C5 labelled type I collagen films)” value was about 200 µM. The “IC50, inhibition of the gelatinolytic activity of seprase (DQ-gelatin assay)” value in experiment [4] was under 10 µM. Besides, the “fold more effective against seprase than DPP4” value in experiment [5] is 100 times.
In the case of GGAGDMWERVSRG, the binding result in experiment [6] is listed as “binds”.

B1: DMWERVSR (peptide)
peptide: DMWERVSR
notes: tested as a synthetic linear peptide in the enzyme assays
Consider B1, for which, in experiment [7], the binding result was “binds”.

B2: DLDYLSKF (peptide)
peptide: DLDYLSKF
notes: as for B1
Consider B2, for which the binding result in experiment [7] is listed as “binds”.
